Assay results as given in article doi:10.1101/2020.02.11.943597.

Assays:
[1] = target: T1, N-cadherin (human (endogenous in primary fibroblasts)), P19022; assay: AFM single-cell force spectroscopy; details: remark: other sources report otherwise
T1 chain: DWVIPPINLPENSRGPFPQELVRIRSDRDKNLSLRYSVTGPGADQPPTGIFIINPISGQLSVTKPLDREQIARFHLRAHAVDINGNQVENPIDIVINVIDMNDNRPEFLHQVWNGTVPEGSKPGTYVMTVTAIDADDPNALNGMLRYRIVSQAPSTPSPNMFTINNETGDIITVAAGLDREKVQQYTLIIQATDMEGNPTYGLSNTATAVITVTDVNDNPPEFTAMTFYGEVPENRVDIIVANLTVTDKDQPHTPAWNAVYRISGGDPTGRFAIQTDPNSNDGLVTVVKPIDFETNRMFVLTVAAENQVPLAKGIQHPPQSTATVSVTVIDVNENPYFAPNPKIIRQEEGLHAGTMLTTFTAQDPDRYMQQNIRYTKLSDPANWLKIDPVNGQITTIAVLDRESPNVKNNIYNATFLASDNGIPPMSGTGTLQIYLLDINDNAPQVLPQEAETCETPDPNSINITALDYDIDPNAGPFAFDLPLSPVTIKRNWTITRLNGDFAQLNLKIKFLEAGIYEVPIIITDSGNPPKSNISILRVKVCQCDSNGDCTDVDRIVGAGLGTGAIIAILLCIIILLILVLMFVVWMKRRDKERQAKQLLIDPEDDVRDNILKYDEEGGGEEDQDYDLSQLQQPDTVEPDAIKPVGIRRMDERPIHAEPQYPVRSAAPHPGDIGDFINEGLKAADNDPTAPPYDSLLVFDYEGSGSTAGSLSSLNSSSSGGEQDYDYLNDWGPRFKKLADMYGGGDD

[2] = target: T1, N-cadherin (human (endogenous in …)); assay: AFM single-cell force spectroscopy; details: remark: other sources report otherwise

median rupture force [1]: 45.2 pN
median rupture force [2]: 51.9 pN
B1: N-cadherin, P19022 160-906 (natural protein)
chain: T1 chain
